We go through one molecule from patent US20260108614A1, “IMMOBILIZED ENDOGLYCOSIDASE FUSION PROTEIN AND USE THEREOF” (GENEQUANTUM HEALTHCARE (SUZHOU) CO., LTD., priority 2022, published 2026).

The data set in a line: Isoelectric point. It is filed as physicochemical. The settings on record: method not stated.

B1: Halo-Endo S2-His: endoglycosidase fusion protein: Halo tag, Endo S2 and His tag, SEQ ID NO: 1 (protein)
chain: MAEIGTGFPFDPHYVEVLGERMHYVDVGPRDGTPVLFLHGNPTSSYVWRNIIPHVAPTHRCIAPDLIGMGKSDKPDLGYFFDDHVRFMDAFIEALGLEEVVLVIHDWGSALGFHWAKRNPERVKGIAFMEFIRPIPTWDEWPEFARETFQAFRTTDVGRKLIIDQNVFIEGTLPMGVVRPLTEVEMDHYREPFLNPVDREPLWRFPNELPIAGEPANIVALVEEYMDWLHQSPVPKLLFWGTPGVLIPPAEAARLAKSLPNCKAVDIGPGLNLLQEDNPDLIGSEIARWLSTLEISGGGGGSGGGGSMDKHLLVKRTLGCVCAATLMGAALATHHDSLNTVKAEEKTVQTGKTDQQVGAKLVQEIREGKRGPLYAGYFRTWHDRASTGIDGKQQHPENTMAEVPKEVDILFVFHDHTASDSPFWSELKDSYVHKLHQQGTALVQTIGVNELNGRTGLSKDYPDTPEGNKALAAAIVKAFVTDRGVDGLDIDIEHEFTNKRTPEEDARALNVFKEIAQLIGKNGSDKSKLLIMDTTLSVENNPIFKGIAEDLDYLLRQYYGSQGGEAEVDTINSDWNQYQNYIDASQFMIGFSFFEESASKGNLWFDVNEYDPNNPEKGKDIEGTRAKKYAEWQPSTGGLKAGIFSYAIDRDGVAHVPSTYKNRTSTNLQRHEVDNISHTDYTVSRKLKTLMTEDKRYDVIDQKDIPDPALREQIIQQVGQYKGDLERYNKTLVLTGDKIQNLKGLEKLSKLQKLELRQLSNVKEITPELLPESMKKDAELVMVGMTGLEKLNLSGLNRQTLDGIDVNSITHLTSFDISHNSLDLSEKSEDRKLLMTLMEQVSNHQKITVKNTAFENQKPKGYYPQTYDTKEGHYDVDNAEHDILTDFVFGTVTKRNTFIGDEEAFAIYKEGAVDGRQYVSKDYTYEAFRKDYKGYKVHLTASNLGETVTSKVTATTDETYLVDVSDGEKVVHHMKLNIGSGAIMMENLAKGAKVIGTSGDFEQAKKIFDGEKSDRFFTWGQTNWIAFDLGEINLAKEWRLFNAETNTEIKTDSSLNVAKGRLQILKDTTIDLEKMDIKNRKEYLSNDENWTDVAQMDDAKAIFNSKLSNVLSRYWRFCVDGGASSYYPQYTELQILGQRLSNDVANTLKDHHHHHHHHHH
modifications: Halo-Endo S2-His
In turn, B1 returned an isoelectric point of 5.5.
